Seven proteins from patent US20140017269A1 (CHILDREN S HOSPITAL MEDICAL CENTER, published 2014) can be followed below.

Series [1] concerns the molecule itself. The experiment in a line: gel filtration; self-association.
Series [2] concerns the molecule itself. Briefly: form of the immunogen as described; self-association.
Series [3] concerns the molecule itself. Briefly: gel filtration; self-association. This is another data set of the same source. (SEC sorts molecules by how far they enter the pores of the column.)
Series [4] concerns the molecule itself. The experiment in a line: gel filtration chromatography (self-association).
Series [5] deals with the molecule itself. The experiment in a line: gel filtration and EM; self-association.

B1: NoV P polypeptide (NoV P^-) of Norovirus VA387 (GII.4) (other)
chain: SRTKPFTVPILTVEEMSNSRFPIPLEKLYTGPSSAFVVQPQNGRCTTDGVLLGTTQLSAVNICTFRGDVTHIAGSHDYIMNLASQNWNNYDPTEEIPAPLGTPDFVGKIQGMLTQTTREDGSTRAHKATVSTGSVHFTPKLGSVQYTTDTNNDLQTGQNTKFTPVGVIQDGNNHQNEPQQWVLPNYSGRTGHNVHLAPAVAPTFPGEQLLFFRSTMPGCSGYPNMNLDCLLPQEWVQHFYQEAAPAQSDVALLRFVNPDTGRVLFECKLHKSGYVTVAHTGPHDLVIPPNGYFRFDSWVNQFYTLAPMGNGAGR
notes: ~34.5 kDa monomer, ~69 kDa dimer; also called free NoV P^- dimer
For the protein B1, the binding result in series [1] is “binds”.

B2: NoV P^- (387)-NoV P^- (115) fusion protein (other)
chain: SRTKPFTVPILTVEEMSNSRFPIPLEKLYTGPSSAFVVQPQNGRCTTDGVLLGTTQLSAVNICTFRGDVTHIAGSHDYIMNLASQNWNNYDPTEEIPAPLGTPDFVGKIQGMLTQTTREDGSTRAHKATVSTGSVHFTPKLGSVQYTTDTNNDLQTGQNTKFTPVGVIQDGNNHQNEPQQWVLPNYSGRTGHNVHLAPAVAPTFPGEQLLFFRSTMPGCSGYPNMNLDCLLPQEWVQHFYQEAAPAQSDVALLRFVNPDTGRVLFECKLHKSGYVTVAHTGPHDLVIPPNGYFRFDSWVNQFYTLAPMGNGAGRGGGGGGGGGGGGQKTKPFSVPNLPLNTLSNSRVPSLIRSMMVSRDHGQMVQFQNGRVTLDGQLQGTTPTSASQLCKIRGSVFHANGGNGYTLTELDGSPYHAFESPAPIGFPDLGECDWHMEASPTTQFDTGDVIKQINVKQEAAFAPHLGTIQADGLSDVSVNTNMIAKLGWVSPASDGHRGNVDPWVIPRYGSTLTEAAQLAPPIYPPGFGEAIVFFMSDFPIAHGANGLSVPCTIPQEFVTHFVNEQAPTRGEAALLHYLDPDTHRNLGEFKLYPEGFMTCVPNSSGTGPQTLPINGVFVFVSWVSRFYQLKPVGTAGPARSLGI
B2: the binding result in series [2] was “binds”.

B3: HEV P domain (protruding domain of hepatitis E virus) (other)
chain: TPSPAPSRPFSVLRANDVLWLSLTAAEYDQTTYGSSTNPMYVSDTVTFVNVATGAQAVARSLDWSKVTLDGRPLTTIQQYSKTFYVLPLRGKLSFWEASTTKAGYPYNYNTTASDQILIENAAGHRVAISTYTTSLGAGPTSISAVGVLAPHSALAALEDTVDYPCDCRGDCFC
notes: released from GST-HEV P by thrombin; ~19 kDa monomer, ~38 kDa dimer
B3: in series [1], the binding result was “binds”.

B4: NoV P^--VP8* (C-end) protein (other)
chain: SRTKPFTVPILTVEEMSNSRFPIPLEKLYTGPSSAFVVQPQNGRCTTDGVLLGTTQLSAVNICTFRGDVTHIAGSHDYIMNLASQNWNNYDPTEEIPAPLGTPDFVGKIQGMLTQTTREDGSTRAHKATVSTGSVHFTPKLGSVQYTTDTNNDLQTGQNTKFTPVGVIQDGNNHQNEPQQWVLPNYSGRTGHNVHLAPAVAPTFPGEQLLFFRSTMPGCSGYPNMNLDCLLPQEWVQHFYQEAAPAQSDVALLRFVNPDTGRVLFECKLHKSGYVTVAHTGPHDLVIPPNGYFRFDSWVNQFYTLAPMGNGAGRGGGGGGGGGGGGLDGPYQPTTFTPPTDYWILINSNTNGVVYESTNNSDFWTAVIAVEPHVNPVDRQYNVFGENKQFNVRNDSDKWKFLEMFRGSSQNDFYNRRTLTSDTRLVGILKYGGRIWTFHGETPRATTDSSNTANLNGISITIHSEFYIIPRSQESKCNEYINNGL
notes: Thrombin-cleaved product; ~52 kDa monomer, ~100 kDa dimer; also called free NoV P^--VP8* dimer
Take B4: in series [3], the binding result was “binds”.

B5: Rotavirus VP8* (other)
chain: LDGPYQPTTFTPPTDYWILINSNTNGVVYESTNNSDFWTAVIAVEPHVNPVDRQYNVFGENKQFNVRNDSDKWKFLEMFRGSSQNDFYNRRTLTSDTRLVGILKYGGRIWTFHGETPRATTDSSNTANLNGISITIHSEFYIIPRSQESKCNEYINNGL
notes: ~18 kDa monomer; also called free VP8* monomer
Regarding B5, the binding result in series [4] is reported as “no binding”.

B6: NoV P domain-RGDCFC (NoV P^+) of Norovirus VA387 (GII.4) (other)
chain: SRTKPFTVPILTVEEMSNSRFPIPLEKLYTGPSSAFVVQPQNGRCTTDGVLLGTTQLSAVNICTFRGDVTHIAGSHDYIMNLASQNWNNYDPTEEIPAPLGTPDFVGKIQGMLTQTTREDGSTRAHKATVSTGSVHFTPKLGSVQYTTDTNNDLQTGQNTKFTPVGVIQDGNNHQNEPQQWVLPNYSGRTGHNVHLAPAVAPTFPGEQLLFFRSTMPGCSGYPNMNLDCLLPQEWVQHFYQEAAPAQSDVALLRFVNPDTGRVLFECKLHKSGYVTVAHTGPHDLVIPPNGYFRFDSWVNQFYTLAPMGNGAGRRRALCDCRGDCFC
notes: Mainly the 24mer P particle (~830 kDa), with a low portion (~5%) of P dimer; also called P-RGDCFC
On to B6, for which, in series [5], the binding result is “binds”.

B7: NoV P^- (387)-NoV P^- (207) fusion protein (other)
chain: SRTKPFTVPILTVEEMSNSRFPIPLEKLYTGPSSAFVVQPQNGRCTTDGVLLGTTQLSAVNICTFRGDVTHIAGSHDYIMNLASQNWNNYDPTEEIPAPLGTPDFVGKIQGMLTQTTREDGSTRAHKATVSTGSVHFTPKLGSVQYTTDTNNDLQTGQNTKFTPVGVIQDGNNHQNEPQQWVLPNYSGRTGHNVHLAPAVAPTFPGEQLLFFRSTMPGCSGYPNMNLDCLLPQEWVQHFYQEAAPAQSDVALLRFVNPDTGRVLFECKLHKSGYVTVAHTGPHDLVIPPNGYFRFDSWVNQFYTLAPMGNGAGRGGGGGGGGGGGGSKTKAFTIPVLKISEMTNSRFPVPVDQMYTSRSEGIVVQPQNGRATIDGELLGTTLVSPVSVCNFKGNLQAEVPGQHQLYQLQLTNLDGSPIDPTDDTPGPLGCPDFTGLLYGVASQRGPGDATRAHEARIDTGSDTFAPKIGQVRFYSTSSDFETNQPTHFTPIGIYIEGNSSDFNQWQLPRYGGHLANNNHLAPAVSPLFPGEQILFFRSFIPGASGHTNGEMDCLLPQEFVQHFYQEAATARSEVALLRFVNPDTGRALFESKLHKQGFMTIASSGDHPIIMPTNGYFRFEAWVNQFYSLAPVGTGSGR
notes: also called NoV P^-(GII.4)-NoV P^-(GII.9)
As to B7, the binding result in series [5] is reported as “binds”.
